# From paper PMC4039143, “Polyubiquitylation of AMF requires cooperation between the gp78 and TRIM25 ubiquitin ligases” (Oncotarget, 2013)
# B1: GST fusion bearing the entire C-terminal (cytoplasmic) domain of gp78 (domain or fragment, human, UniProt Q9UKV5 309-643, looked up)
# chain: IRRHKNYLRVVGNMEARFAVATPEELAVNNDDCAICWDSMQAARKLPCGHLFHNSCLRSWLEQDTSCPTCRMSLNIADNNRVREEHQGENLDENLVPVAAAEGRPRLNQHNHFFHFDGSRIASWLPSFSVEVMHTTNILGITQASNSQLNAMAHQIQEMFPQVPYHLVLQDLQLTRSVEITTDNILEGRIQVPFPTQRSDSIRPALNSPVERPSSDQEEGETSAQTERVPLDLSPRLEETLDFGEVEVEPSEVEDFEARGSRFSKSADERQRMLVQRKDELLQQARKRFLNKSSEDDAASESFLPSEGASSDPVTLRRRMLAAAAERRLQKQQTS
# notes: Expression vector provided by A Weissman; also called GST-gp78C; gp78C; source: E. coli (BL21), lysate applied to glutathione-agarose and washed; also purified on glutathione-agarose
# Target: T1, His-tagged AMF expressed in and purified from E. coli (human, UniProt P06744 1-558)
# T1 construct: autocrine motility factor (AMF) / phosphoglucose isomerase (PGI); the E. coli expression construct is not described; also called his-AMF; PGI; source: E. coli (BL21), purified (Ni-NTA agarose, PD-10 desalting); not shown: His, N-terminal, kept
# Experiment: pull-down; GST fusions held on glutathione-agarose and washed; incubated with purified his-AMF or TRIM25 in buffer D (50 mM Tris/HCl pH 7.5, 100 mM NaCl, 1 mM DTT, 0.1% Tween20), 3 hr at 4 °C; retained protein detected by immunoblot
# Conditions: both partners purified
binder,measurement,value
B1,binding result,binds
